According to publication PMC12173945, “Import mechanism of peroxisomal proteins with an N-terminal signal sequence” (Nature Cell Biology, 2025):

B1: GST-tagged wild-type yeast PEX39 (GST–PEX39) [yeast] / yeast PEX7 [yeast (S. cerevisiae)] (parent complex)
chain 1: MAAGGELSYEELLDHILNNKPIPNIVEVPNVTLDEGLASTPSLRPRPRPWEGQLQHQSHQGSLDKPNISLDIDQESLEGMTSLTRLSECYDIQSKLQINDSDNDNDDNNNDNNKGDGNDDDNNTVTANPTAR
chain 2: MLRYHMQGFSGYGVQYSPFFDNRLAVAAGSNFGLVGNGKLFILEIDRSGRIVEVNSFLTQDCLFDLAWNESHENQVLVAQGDGTLRLFDTTFKEFPIAIFKEHEREVFSCNWNLVNRQNFLSSSWDGSIKIWSPLRKQSLMTLTPRPLEITKMVDPLNAIILKKKSFTGISKNRNCVYQAQFSPHDQNLVLSCSGNSYASLFDIRLPSGKNQNNFLVHSGLEALTCDFNKYRPYVVATGGVDNAIRIWDIRMLNKNESATIKRTVPGQLHNSSCINEIPNAHGLAIRKVTWSPHHSNILMSASYDMTCRIWRDLSNDGAKETYKTNSTDATKGSIFNFTQHSEFVFGADWSLWGKPGYVASTAWDGNLFVWNGLG

Variants of: B1
Test: bead sedimentation (GST pull-down depletion) assay, SDS-PAGE with Coomassie quantification of PEX7 left in the supernatant; 1 µM yeast PEX7; varying GST-PEX39 concentrations; 1 h; 25 °C; parent: 0.6 nM

Variant	screen value [nM]
chain 1 Y9A, chain 1 L12A, chain 1 L13A, chain 1 I16A, chain 1 L17A	610
